Non-standard residues stand in square brackets, D forms with d. No end group written: not given here. pT = C[C@@H](OP(=O)(O)O)[C@H](N)C(=O)O
B1: SLVDARFQL (peptide)
peptide: SLVDARFQL
notes: gene: OSR1
B2: IIDSSPTAL (peptide)
peptide: IIDSSPTAL
notes: gene: ATAD5
B3: LULAKLEKV (peptide)
peptide: L[pT]LAKLEKV
notes: gene: C9orf156
B4: KLAEISLGV (peptide)
peptide: KLAEISLGV
notes: gene: DSG3
B5: GLYSGEVLV (peptide)
peptide: GLYSGEVLV
notes: gene: WDR34
B6: LLSEDFVSV (peptide)
peptide: LLSEDFVSV
notes: gene: SPATA20
B7: YLIGQHVTA (peptide)
peptide: YLIGQHVTA
notes: gene: FBXO21
B8: RLLELLQEA (peptide)
peptide: RLLELLQEA
notes: gene: PROM2

Legend:
HLA-A*02:01 [1] = molecular target: T1, HLA-A*02:01 (human); test: UV-ligand exchange + anti-b2m ELISA; ++++ = peptide exchange yield >75%
T1 construct: MHC monomer first loaded with a UV-sensitive peptide, which is cleaved by UV and exchanged with the test peptide; captured on streptavidin plates; also called peptide-receptive MHC molecules
From the text: (§1) Candidate peptides for T cell based therapies according to the present invention were further tested for their MHC binding capacity (affinity). The individual peptide-MHC complexes were produced by UV-ligand exchange, where a UV-sensitive peptide is cleaved upon UV-irradiation, and exchanged with the peptide of interest as analyzed. Only peptide candidates that can effectively bind and stabilize the peptide-receptive MHC molecules prevent dissociation of the MHC complexes. To determine the yield of the exchange reaction, an ELISA was performed based on the detection of the light chain (β2m) of stabilized MHC complexes. The assay was performed as generally described in Rodenko et al. (Rodenko et al., 2006).
(§2) 96 well MAXISorp plates (NUNC) were coated over night with 2 ug/ml streptavidin in PBS at room temperature, washed 4× and blocked forth at 37° C. in 2% BSA containing blocking buffer. Refolded HLA-A*02:01/MLA-001 monomers served as standards, covering the range of 15-500 ng/ml. Peptide-MHC monomers of the UV-exchange reaction were diluted 100 fold in blocking buffer. Samples were incubated for 1 h at 37° C., washed four times, incubated with 2 ug/ml HRP conjugated anti-β2m for 1 h at 37° C., washed again and detected with TMB solution that is stopped with […]. Absorption was measured at 450 nm. Candidate peptides that show a high exchange yield (preferably higher than 50%, most preferred higher than 75%) are generally preferred for a generation and production of antibodies or fragments thereof, and/or T cell receptors or fragments thereof, as they show sufficient avidity to the MHC molecules and prevent dissociation of the MHC complexes.

HLA-A*02:01 [2] = molecular target: T1, HLA-A*02:01; test: UV-ligand exchange + anti-b2m ELISA; ++ = peptide exchange yield >20%
From the text: as §1, §2

Binder | peptide exchange yield (HLA-A*02:01 [1]) [%] | peptide exchange yield (HLA-A*02:01 [2]) [%]
B1 | > 75 | –
B2 | – | 20 to 50
B3 | – | 20 to 50
B4 | – | 20 to 50
B5 | > 75 | –
B6 | – | 20 to 50
B7 | > 75 | –
B8 | > 75 | –
